Reference: patent US20240401063, “Aptamer for DKK1 and Use Thereof” (APTACURE THERAPEUTICS LIMITED, published 2024)

Columns and labels:
[1] = molecular target: T1, DKK1 (Dickkopf-1), full-length (Homo sapiens, UniProt O94907 SEQ:32-266); assay: ELONA; 1 nM: no or slight difference from aptdkk5; settings: tags: His6; label: biotin
T1 sequence: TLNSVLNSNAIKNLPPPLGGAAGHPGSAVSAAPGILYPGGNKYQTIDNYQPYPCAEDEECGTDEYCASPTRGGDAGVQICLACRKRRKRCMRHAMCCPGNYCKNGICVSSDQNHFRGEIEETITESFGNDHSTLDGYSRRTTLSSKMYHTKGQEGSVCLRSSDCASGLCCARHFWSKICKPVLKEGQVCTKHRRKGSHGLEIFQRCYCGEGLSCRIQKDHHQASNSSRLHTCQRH
Procedure: (§1) Enzyme linked oligonucleotide assay (ELONA): 160 ng DKK1 per well and negative target were coated in a 96-well microtiter plate by incubating at 4° C. overnight through hydrophobic interaction. Non-binding sites in wells were blocked with bull serum albumin (BSA) at room temperature for 1 hour, and then washed with DNA-binding buffer 4 times for 5 minutes each. The biotinylated aptamer candidates/RS with an appropriate concentration were added to each well and incubated at room temperature for 45 minutes with continuous gentle shaking. After binding, the plate was washed with washing buffer 4 times for 5 minutes each to remove non-specific and weakly binding sequences. 100 μl streptavidin-horseradish peroxidase (HRP) (1:10000 dilute into PBST+0.1% BSA) was added to each well, and incubated for 30 minutes, and washed for 4 times with the binding buffer. 50 μl 3,3′,5,5′-tetramethylbenzidine (TMB) as a HRP substrate was added to each well and incubated for 20 minutes. 50 μl 2M H₂SO₄ was added to terminate the reaction. The absorbance at 450 nm was measured with a microplate reader (Molecular Device i3x). Data was analyzed with Origin software. A binding curve was generated and KD was calculated with a non-linear curve fitting model logistic.
The specificity of 100 nM/i nM of each aptamer/RS against DKK-1 was determined for 24 truncated sequences of aptdkk5 and original aptdkk5 (Table 6) by ELONA and the absorbance at 450 nm was detected. When the concentration was 100 nM, there was no significant difference or slight difference in the absorbance between apt5-1-38, apt5-1-35, apt5-1-62, or apt5-1-59 and the original aptdkk5 (FIG. 8a). When the concentration was 1 nM, there was no significant difference or slight difference in the absorbance between apt5-1-50, apt5-1-47, apt5-1-44, apt5-1-41, apt5-1-38, apt5-1-35, apt5-1-65, apt5-1-62, apt5-1-59, or apt5-1-53 and the original aptdkk5 (FIG. 8b). After the specificity and length of these aptamers were considered, apt5-1-44, apt5-1-41, apt5-1-38, and apt5-1-35 were selected to determine the binding affinity against DKK1.

[2] = molecular target: T1, DKK1 (Dickkopf-1), full-length; assay: ELONA; not significantly above blank at 1 uM; used as negative control; settings: tags: His6; label: biotin
Procedure: as §1, with “50 μl 2M H₂SO₄ was added to terminate the reaction.” left out
The specificity of 1 μM of each adapter/RS against DKK-1 was determined for 20 potential sequences with the highest occurrence rate (Table 4) by ELONA and the absorbance at 450 nm was detected.

[3] = molecular target: T1, DKK1 (Dickkopf-1), full-length; assay: ELONA; high affinity; Kd only in FIG. 9; settings: tags: His6; label: biotin
Procedure: as §1
Aptamer candidates with significant specificity (apt5-1-44, apt5-1-41, apt5-1-38, and apt5-1-35) and the original aptdkk5 as a positive control were used to determine the binding affinity against DKK1. The original aptdkk5 and apt5-1-44 had concentrations of (0.15625 nM, 0.625 nM, 1.25 nM, 2.5 nM, 5 nM, 10 nM, 50 nM, and 100 nM), apt5-1-41, apt5-1-38, and apt5-1-35 had concentrations of (0, 1.5625 nM, 3.125 nM, 6.25 nM, 12.5 nM, 25 nM, and 50 nM).

[4] = molecular target: T1, DKK1 (Dickkopf-1), full-length; assay: ELONA; highest affinity of the four truncations; Kd only in FIG. 9; settings: tags: His6; label: biotin
Procedure: as §1, with “logistic. […]” for “logistic.”

[5] = molecular target: T2, DKK1 expressed in Wnt reporter cells (UniProt O94907 SEQ:32-266); assay: cell_activity; TOPFlash Wnt3a luciferase in HEK293T; settings: tags: DKK1 construct co-transfected in HEK293T
T2 sequence: T1 sequence
Procedure: TCF-wnt induced luciferase activity assay: HEK293T cells were co-transfected with corresponding plasmids, including TOPFlash, FOPFlash, Wnt3a, and DKK1 constructs. An equal amount of the carrier was used for each time of transfection. The culture medium was replaced 24 hours after the transfection. The cells were treated with conditional culture medium containing 1 μM corresponding aptamer candidates. In order to determine inhibition effect, the cells are treated with aptamer candidates having gradient concentrations. 24 hours after treatment, the cells were lysed with 100 μl of lysis buffer, and 20 μl was taken for analysis. It was calculated according to the protocol (dual luciferase reporter gene assay, Promega).

[6] = molecular target: T1, DKK1 (Dickkopf-1), full-length; assay: ELONA; room temperature; settings: tags: His6; label: biotin; G-rich, predicted G4
Procedure: as §1
Aptamer candidates with significant specificity and Candidate 3 as a negative control were used to determine the binding affinity against DKK1. Candidates 1, 2, 4, and 14 had concentrations of (0, 62.5 nM, 125 nM, 250 nM, 500 nM, 1000 nM, 2000 nM, and 4000 nM), Candidates 7, 10, 15, and 16 had concentrations of (0, 23.44 nM, 46.86 nM, 93.75 nM, 187.5 nM, 375 nM, 750 nM, and 1500 nM), and other candidates had concentrations of (0, 0.18 nM, 0.74 nM, 2.96 nM, 11.84 nM, 47.35 nM, 189.39 nM, and 757.58 nM). […] Six candidates (aptdkk-5, 13, 20, 19, 6, and 1) were rich in G. The other five sequences (aptdkk-9, 18, 12, 17, and 8) were not rich in G.

[7] = molecular target: T1, DKK1 (Dickkopf-1), full-length; assay: ELONA; 100 nM and 1 nM: no or slight difference from aptdkk5; settings: tags: His6; label: biotin
Procedure: as §1, with “100 μl streptavidin-horseradish peroxidase (HRP) (1:10000 dilute into PBST+0.1% BSA) was added to each well, and incubated for 30 minutes, and washed for 4 times with the binding buffer. 50 μl 3,3′,5,5′-tetramethylbenzidine (TMB) as a HRP substrate was added to each well and incubated for 20 minutes. 50 μl 2M H₂SO₄ was added to terminate the reaction.” left out
The specificity of 100 nM/i nM of each aptamer/RS against DKK-1 was determined for 24 truncated sequences of aptdkk5 and original aptdkk5 (Table 6) by ELONA and the absorbance at 450 nm was detected. When the concentration was 100 nM, there was no significant difference or slight difference in the absorbance between apt5-1-38, apt5-1-35, apt5-1-62, or apt5-1-59 and the original aptdkk5 (FIG. 8a). […]

[8] = label: biotin, G-rich, predicted G4

B1: Apt5-1-53 (ssDNA)
DNA: CGTACGGTCGACGCTAGCTGGTGGTTGGGGTGGGTGGTGGTTGTTCGTGGCCG
binding result [1]: binds

B2: Apt5-1-65 (ssDNA)
DNA: CGTACGGTCGACGCTAGCTGGTGGTTGGGGTGGGTGGTGGTTGTTCGTGGCCGCGTACGGTCGAC
binding result [1]: binds

B3: Aptdkk-3 (ssDNA)
DNA: CGTACGGTCGACGCTAGCTAACTGTCCGACGCGTCTTTCACTTTCTCCCGCCGGGATCCGAGCTCCACGTG
binding result [2]: no binding

CGTACGGTCGACGCTAGCTGGTGGTTGGGGTGGGT (ssDNA) [Apt5-1-35]
binding result [3]: binds

CGTACGGTCGACGCTAGCTGGTGGTTGGGGTGGGTGGT (ssDNA) [Apt5-1-38 (Aptdkk5s)]
binding result [4]: binds

CGTACGGTCGACGCTAGCTGGTGGTTGGGGTGGGTGGT (ssDNA, O-methyl (positions not stated); 3' inverted dT) [dkk5s-OM-indT]
IC50 [5]: 383 nM

B4: Aptdkk-20 (ssDNA)
DNA: CGTACGGTCGACGCTAGCCGTAGGGAGGTGGGTGGGTATTTCTCTCTGTCGTGGGATCCGAGCTCCACGTG
Kd [6]: 6.6 nM | IC50 [5, 8]: 1500 nM

CGTACGGTCGACGCTAGCTGGTGGTTGGGGTGGGTGGTGGT (ssDNA) [Apt5-1-41]
binding result [3]: binds

B5: Apt5-1-62 (ssDNA)
DNA: CGTACGGTCGACGCTAGCTGGTGGTTGGGGTGGGTGGTGGTTGTTCGTGGCCGCGTACGGTC
binding result [7]: binds

CGTACGGTCGACGCTAGCTGGTGGTTGGGGTGGGTGGTGGTTGT (ssDNA) [Apt5-1-44]
binding result [3]: binds

B6: Apt5-1-59 (ssDNA)
DNA: CGTACGGTCGACGCTAGCTGGTGGTTGGGGTGGGTGGTGGTTGTTCGTGGCCGCGTACG
binding result [7]: binds

B7: Aptdkk-5 (ssDNA)
DNA: CGTACGGTCGACGCTAGCTGGTGGTTGGGGTGGGTGGTGGTTGTTCGTGGCCGGGATCCGAGCTCCACGTG
Kd [6]: 0.3 nM | IC50 [5, 8]: 754 nM
